doi:10.1101/2025.08.25.672245

Columns and labels:
[1] = target: firefly luciferase Fluc^A12C-K329C (Fluc^NDS1, N-terminal domain sensor) (firefly) [luciferase: P08659]; experiment: single-molecule FRET within the labelled client
[2] = target: firefly luciferase Fluc^K378C-K496C (Fluc^CDS1, C-terminal domain sensor) (firefly) [luciferase: P08659]; experiment: single-molecule FRET within the labelled client

Question: Which results are given for “DnaK (bacterial Hsp70) (from UniProt P0A6Y8 1-638) (natural protein)”?
Answer: percent of the time DnaK-bound (FRET < 0.3) after 15 min [1]: 15%; percent of the time DnaK-bound (FRET < 0.3) after 15 min [2]: 15%
